From patent US20140205597A1 (published 2014) come the findings set out here.

Experiment [1] has as its target T1, monoclonal antibody 21-4-3.
T1 construct: mouse IgG1 heavy chain, kappa light chain; also called mAb21-4-3; produced by hybridoma ABH0015 (LMBP-9680-CB)
The experiment in a line: Biacore, captured 21-4-3. As for the experimental part:
Binding measurements were performed using a Biacore T100 using a CM5 T120416 sensor chip, with running buffer HBS-EP+, 25° C. […] The anti-mouse IgG used was a polyclonal rabbit anti-mouse IgG antibodies reacting with all IgG subclasses, IgA and IgM (GE Healthcare; Cat#BR-1008-38; Lot#10056316). Immobilisation of the anti-mouse IgG was performed using manual amine coupling using a 7 minute injection of EDC/NHS for activation and a 7 minute injection of 1M ethanolamine HCl pH 8.5 for deactivation (Biacore, amine coupling kit).

The target in experiment [2] is T2, purified interference factor(s) from serum of Donor A.
T2 construct: text names Donors 8, 19 and 30
The experiment in a line: Biacore, immobilized interference factor. (In general: In SPR one partner is held on a chip, and binding of the other changes the refractive index at the surface.)

For experiment [3], the target named is T3, purified interference factor(s) from serum of Donor B.
T3 construct: text names Donors 8, 19 and 30
The experiment in a line: Biacore, immobilized interference factor.

The target of experiment [4] is T4, purified interference factor(s) from serum of Donor C.
T4 construct: text names Donors 8, 19 and 30
Kind of experiment: Biacore, immobilized interference factor.

Another experiment addresses T5, cMet/Fc (UniProt P08581 25-932).
T5 construct: not shown: Fc part not specified
The experiment in a line: HGF-competition Alphascreen, monovalent form. In general terms: Alpha assays give light when donor and acceptor beads are brought close together.

T5 sequence (P08581 25-932): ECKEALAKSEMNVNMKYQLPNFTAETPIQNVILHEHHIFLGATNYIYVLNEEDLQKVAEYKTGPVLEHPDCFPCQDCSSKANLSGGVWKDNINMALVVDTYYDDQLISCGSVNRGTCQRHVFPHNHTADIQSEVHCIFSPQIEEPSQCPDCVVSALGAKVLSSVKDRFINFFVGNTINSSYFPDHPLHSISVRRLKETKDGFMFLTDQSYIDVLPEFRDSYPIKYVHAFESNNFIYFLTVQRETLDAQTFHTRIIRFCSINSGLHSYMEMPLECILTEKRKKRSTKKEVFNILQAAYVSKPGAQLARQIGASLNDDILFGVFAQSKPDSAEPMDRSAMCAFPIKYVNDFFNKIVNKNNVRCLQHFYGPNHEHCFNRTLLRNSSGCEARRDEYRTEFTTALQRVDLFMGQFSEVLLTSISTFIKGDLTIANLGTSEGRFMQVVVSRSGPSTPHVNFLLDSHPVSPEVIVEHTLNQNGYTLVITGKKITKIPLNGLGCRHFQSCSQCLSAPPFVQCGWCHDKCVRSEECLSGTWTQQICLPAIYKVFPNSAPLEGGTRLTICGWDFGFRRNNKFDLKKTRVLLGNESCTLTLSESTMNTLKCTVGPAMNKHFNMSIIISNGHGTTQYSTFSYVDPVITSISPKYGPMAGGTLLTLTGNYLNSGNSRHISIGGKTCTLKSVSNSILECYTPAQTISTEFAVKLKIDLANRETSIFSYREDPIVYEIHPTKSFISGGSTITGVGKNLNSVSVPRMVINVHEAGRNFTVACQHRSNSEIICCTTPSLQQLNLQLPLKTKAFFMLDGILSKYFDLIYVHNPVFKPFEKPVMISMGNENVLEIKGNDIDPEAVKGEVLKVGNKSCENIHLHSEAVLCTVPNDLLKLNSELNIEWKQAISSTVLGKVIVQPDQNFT

B1: SEQ ID NO 87 (VHH)
VHH: EVQLVESGGGSVQPGGSLRLSCAASRSIGRLDRMGWYRHRPGEPRELVATITGGSSINYGDSVKGRFTISIDNSKNTVYLQMNSLRPEDTAVYYCNFNKYVTSRDTWGQGTLVTVGG
notes: L11S, S112G, S113G
B1: the “binding vs Reference Sequence (=100%)” value was 41% in experiment [1], 51% in experiment [2], 5% in experiment [3] and 39% in experiment [4].

B2: SEQ ID NO 79 (VHH)
VHH: EVQLVESGGGLVQPGGSLRLSCAASRSIGRLDRMGWYRHRPGEPRELVATITGGSSINYGDSVKGRFTISIDNSKNTVYLQMNSLRPEDTAVYYCNFNKYVTSRDTWGQGTLVTVSS
notes: C-terminal: GG
Regarding B2, the “binding vs Reference Sequence (=100%)” value in experiment [1] worked out at 2%; in experiment [2], 1%; in experiment [3], 17%; in experiment [4] it was 13%.

B3: SEQ ID NO 75 (VHH)
VHH: EVQLVESGGGLVQPGGSLRLSCAASRSIGRLDRMGWYRHRPGEPRELVATITGGSSINYGDSVKGRFTISIDNSKNTVYLQMNSLRPEDTAVYYCNFNKYVTSRDTWGQGTLVTVSS
notes: C-terminal: AA
For B3, the “binding vs Reference Sequence (=100%)” value is 1% in experiment [1], 1% in experiment [2], 11% in experiment [3] and 16% in experiment [4].

B4: SEQ ID NO 74 (VHH)
VHH: EVQLVESGGGLVQPGGSLRLSCAASRSIGRLDRMGWYRHRPGEPRELVATITGGSSINYGDSVKGRFTISIDNSKNTVYLQMNSLRPEDTAVYYCNFNKYVTSRDTWGQGTLVTVSS
notes: C-terminal: G
Turning to B4, the “binding vs Reference Sequence (=100%)” value in experiment [1] was determined as 1%; in experiment [2], 4%; in experiment [3] it was 41%; in experiment [4], 33%.

B5: SEQ ID NO 76 (VHH)
VHH: EVQLVESGGGLVQPGGSLRLSCAASRSIGRLDRMGWYRHRPGEPRELVATITGGSSINYGDSVKGRFTISIDNSKNTVYLQMNSLRPEDTAVYYCNFNKYVTSRDTWGQGTLVTVSS
notes: C-terminal: GGG
Turning to B5, the “binding vs Reference Sequence (=100%)” value in experiment [1] amounted to 2%; in experiment [2], 2%; in experiment [3] it was 17%; in experiment [4] it was 20%.

B6: SEQ ID NO 77 (VHH)
VHH: EVQLVESGGGLVQPGGSLRLSCAASRSIGRLDRMGWYRHRPGEPRELVATITGGSSINYGDSVKGRFTISIDNSKNTVYLQMNSLRPEDTAVYYCNFNKYVTSRDTWGQGTLVTVSS
notes: C-terminal: A
As to B6, the “binding vs Reference Sequence (=100%)” value stood at 1% in experiment [1], 2% in experiment [2], 12% in experiment [3] and 13% in experiment [4].

B7: SEQ ID NO 89 (VHH)
VHH: EVQLVESGGGSVQAGGSLRLSCAASRSIGRLDRMGWYRHRPGEPRELVATITGGSSINYGDSVKGRFTISIDNSKNTVYLQMNSLRPEDTAVYYCNFNKYVTSRDTWGQGTLVQVGG
notes: L11S, P14A, T110Q, S112G, S113G
As for B7, the “binding vs Reference Sequence (=100%)” value in experiment [1] turned out to be 2%; in experiment [2] it was 14%; in experiment [3], 5%; in experiment [4] it was 17%.

B8: SEQ ID NO 73 (VHH)
VHH: EVQLVESGGGLVQPGGSLRLSCAASRSIGRLDRMGWYRHRPGEPRELVATITGGSSINYGDSVKGRFTISIDNSKNTVYLQMNSLRPEDTAVYYCNFNKYVTSRDTWGQGTLVTVGG
notes: C-terminal: G; S112G, S113G
As to B8, the “binding vs Reference Sequence (=100%)” value in experiment [1] turned out to be 1%; in experiment [2], 6%; in experiment [3] it was 8%; in experiment [4], 9%.

B9: SEQ ID NO 88 (VHH)
VHH: EVQLVESGGGSVQPGGSLRLSCAASRSIGRLDRMGWYRHRPGEPRELVATITGGSSINYGDSVKGRFTISIDNSKNTVYLQMNSLRPEDTAVYYCNFNKYVTSRDTWGQGTLVQVSS
notes: C-terminal: A; L11S, T110Q
Regarding B9, the “binding vs Reference Sequence (=100%)” value in experiment [1] was 1%; in experiment [2], 1%; in experiment [3] it was 5%; in experiment [4], 11%.

B10: A007901255, monovalent form (VHH)
VHH: DVQLVESGGGLVQPGGSLRLSCAASGFTFDDYAIGWFRQAPGEEREGVSSISSTYGLTYYADSVKGRFTISSDNSKNTVYLQMNSLRPEDTAVYYCAATPIGLIGLDAYEYDYWGQGTLVTVSS
notes: anti-c-MET Nanobody
Usually IC50 stands for the concentration that gives 50% inhibition. The low end stands for greater potency, the high end for weaker potency. In the experiment with cMet/Fc, B10 had an IC50 of 0.091 nM.

B11: A007901256, monovalent form (VHH)
VHH: DVQLVESGGGLVQPGGSLRLSCAASGFAFDDYAIGWFRQAPGEEREGVSSISSTYGLTYYADSVKGRFTISSDNSKNTVYLQMNSLRPEDTAVYYCAATPIGLIGLDAYEYDYWGQGTLVTVSS
notes: anti-c-MET Nanobody
In the experiment with cMet/Fc, B11 had an IC50 of 0.048 nM.

B12: A007901259, monovalent form (VHH)
VHH: DVQLVESGGGLVQPGGSLRLSCAASGFTFDDYAIGWFRQAPGEERLGVSSISSTYGLTYYADSVKGRFTISSDNSKNTVYLQMNSLRPEDTAVYYCAATPIGLIGLDAYEYDYWGQGTLVTVSS
notes: anti-c-MET Nanobody
B12 showed an IC50 with cMet/Fc of 0.043 nM.

B13: A007901260, monovalent form (VHH)
VHH: DVQLVESGGGLVQPGGSLRLSCAASGFAFDDYAIGWFRQAPGEERLGVSSISSTYGLTYYADSVKGRFTISSDNSKNTVYLQMNSLRPEDTAVYYCAATPIGLIGLDAYEYDYWGQGTLVTVSS
notes: anti-c-MET Nanobody
Regarding B13, the IC50 with cMet/Fc came to 0.035 nM.
